Here are results for four molecules from US20180311371A1 (Hoffmann-La Roche, published 2018).

What is called EC50 is the concentration needed to bring the measured effect to its halfway point. Low values mean a more potent agent, high ones a less potent agent.

Assay [1] deals with T1, human TPBG (trophoblast glycoprotein), full length, cell surface expressed (human, UniProt Q13641 32-420).
T1 sequence: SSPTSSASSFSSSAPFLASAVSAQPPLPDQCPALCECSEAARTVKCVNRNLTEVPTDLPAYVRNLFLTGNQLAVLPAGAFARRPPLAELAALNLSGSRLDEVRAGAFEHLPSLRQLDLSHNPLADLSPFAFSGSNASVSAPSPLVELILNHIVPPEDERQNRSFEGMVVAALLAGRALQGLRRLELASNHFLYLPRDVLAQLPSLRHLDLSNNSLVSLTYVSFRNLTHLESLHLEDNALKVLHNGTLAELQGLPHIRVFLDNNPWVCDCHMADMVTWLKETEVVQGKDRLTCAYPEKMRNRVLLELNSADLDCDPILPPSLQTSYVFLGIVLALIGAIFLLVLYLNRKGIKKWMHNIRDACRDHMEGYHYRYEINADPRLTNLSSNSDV
The assay is described as follows: cell-based or functional assay.

Assay [2] deals with T1, human TPBG (trophoblast glycoprotein), ….

B1: 097 Fab coupled to PE24 (LR8M) via sortase coupling (Fab)
heavy: EVQLLESGGGLAQPGGSLRLSCAASGFTFNNDAMTWVRQAPGKGLEWVSAISGSGGSTYYADSVKGRFTISRDNSKNTLYLQMNSLRAEDTAVYYCAKGGSWGDWYYYFYPMDVWGQGTTVTVSSASTKGPSVFPLAPSSKSTSGGTAALGCLVKDYFPEPVTVSWNSGALTSGVHTFPAVLQSSGLYSLSSVVTVPSSSLGTQTYICNVNHKPSNTKVDKKVEPKSCGGGSLPETGGGRHRQPRGWEQLYPTGAEFLGDGGAVSFSTRGTQNWTVERLLQAHRQLEEGGYVFVGYHGTFLEAAQSIVFGGVRARSQDLDAIWAGFYIAGDPALAYGYAQDQEPDAAGRIRNGALLRVYVPRSSLPGFYATSLTLAAPEAAGEVERLIGHPLPLRLDAITGPEESGGRLETILGWPLAERTVVIPSAIPTDPRNVGGDLDPSSIPDSEAAISALPDYASQPGKPPREDL
light: not shown
On to B1, for which, in assay [1], the “EC50 cytotoxicity, sortase-coupled Fab-PE, MCF7” value (shortened to “EC50 cytotoxicity”) worked out at 0.054 nM and the “X-fold higher potency compared to TPBG(H8)PE, MCF7” value (“X-fold higher potency” below) came out at 1.1 fold. Besides, in assay [2], a half-maximal response (EC50) required 0.63 nM.

B2: 051 Fab coupled to PE24 (LR8M) via sortase coupling (Fab)
heavy: EVQLLESGGGLLQPGGSLRLSCAASGFTFSIYWMTWVRQAPGKGLEWVSAISGSGGSTYYADSVKGRFTISRDNSKNTLYLQMNSLRAEDTAVYYCAKDYYSNVYWGQGTLVTVSSASTKGPSVFPLAPSSKSTSGGTAALGCLVKDYFPEPVTVSWNSGALTSGVHTFPAVLQSSGLYSLSSVVTVPSSSLGTQTYICNVNHKPSNTKVDKKVEPKSCGGGSLPETGGGRHRQPRGWEQLYPTGAEFLGDGGAVSFSTRGTQNWTVERLLQAHRQLEEGGYVFVGYHGTFLEAAQSIVFGGVRARSQDLDAIWAGFYIAGDPALAYGYAQDQEPDAAGRIRNGALLRVYVPRSSLPGFYATSLTLAAPEAAGEVERLIGHPLPLRLDAITGPEESGGRLETILGWPLAERTVVIPSAIPTDPRNVGGDLDPSSIPDSEAAISALPDYASQPGKPPREDL
light: DIQMTQSPSSVSASVGDRVTITCRASQGIYSWLAWYQQKPGKAPKLLIYAASSLQSGVPSRFSGSGSGTDFTLTISSLQPEDFATYYCQQSDSPPYTFGQGTKLEIKRTVAAPSVFIFPPSDEQLKSGTASVVCLLNNFYPREAKVQWKVDNALQSGNSQESVTEQDSKDSTYSLSSTLTLSKADYEKHKVYACEVTHQGLSSPVTKSFNRGEC
For the molecule B2, in assay [1], the “EC50 cytotoxicity” value is 0.036 nM and the “X-fold higher potency” value is 1.7 fold. This molecule displayed an EC50 in assay [2] of 0.67 nM.

B3: H8 Fab coupled to PE24 (LR8M) via sortase coupling (Fab, V domains shown)
VH: EVQLQQSGPDLVKPGASVKISCKASGYSFTGYYMHWVKQSHGKSLEWIGRINPNNGVTLYNQKFKDKAILTVDKSSTTAYMELRSLTSEDSAVYYCARSTMITNYVMDYWGQVTSVTVSS
VL: SIVMTQTPTFLLVSAGDRVTITCKASQSVSNDVAWYQQKPGQSPTLLISYTSSRYAGVPDRFIGSGYGTDFTFTISTLQAEDLAVYFCQQDYNSPPTFGGGTKLEIKR
For the molecule B3, in assay [1], the “EC50 cytotoxicity” value turned out to be 0.059 nM. Further, in assay [2], the EC50 was found to be 1.56 nM.

B4: 091 Fab coupled to PE24 (LR8M) via sortase coupling (Fab)
heavy: EVHLLESGGGLVHPGGSLRLSCAASGFTFRSDAMHWVRQAPGKGLEWVSGVSGSGGSPYYADSVKGRFTISRDDSKTTLYLQMNSLRAEDTAVYYCATGGSIAGSYYYYPMDVWGQGTTVTVSSASTKGPSVFPLAPSSKSTSGGTAALGCLVKDYFPEPVTVSWNSGALTSGVHTFPAVLQSSGLYSLSSVVTVPSSSLGTQTYICNVNHKPSNTKVDKKVEPKSCGGGSLPETGGGRHRQPRGWEQLYPTGAEFLGDGGAVSFSTRGTQNWTVERLLQAHRQLEEGGYVFVGYHGTFLEAAQSIVFGGVRARSQDLDAIWAGFYIAGDPALAYGYAQDQEPDAAGRIRNGALLRVYVPRSSLPGFYATSLTLAAPEAAGEVERLIGHPLPLRLDAITGPEESGGRLETILGWPLAERTVVIPSAIPTDPRNVGGDLDPSSIPDSEAAISALPDYASQPGKPPREDL
light: not shown
Consider B4, for which, in assay [1], the “EC50 cytotoxicity” value was determined as 0.033 nM and the “X-fold higher potency” value was determined as 1.8 fold. This molecule also came in with a 50% effective concentration (EC50) in assay [2] of 0.61 nM.
